Assay results published in patent publication US20030199022, “Tamoxifen and 4-hydroxytamoxifen-activated system for regulated production of proteins in eukaryotic cells” (Board of Trustees of University of Illinois, published 2003).

Legend:
ERα wild type (in cell) = molecular target: T1, ERα wild type (in cell) (Homo sapiens, UniProt P03372 SEQ:1-595); assay: cell_activity; HepG2, 10 nM MOX, 2.5 ng plasmid; conditions: chain copies: 2 inferred
T1 chain: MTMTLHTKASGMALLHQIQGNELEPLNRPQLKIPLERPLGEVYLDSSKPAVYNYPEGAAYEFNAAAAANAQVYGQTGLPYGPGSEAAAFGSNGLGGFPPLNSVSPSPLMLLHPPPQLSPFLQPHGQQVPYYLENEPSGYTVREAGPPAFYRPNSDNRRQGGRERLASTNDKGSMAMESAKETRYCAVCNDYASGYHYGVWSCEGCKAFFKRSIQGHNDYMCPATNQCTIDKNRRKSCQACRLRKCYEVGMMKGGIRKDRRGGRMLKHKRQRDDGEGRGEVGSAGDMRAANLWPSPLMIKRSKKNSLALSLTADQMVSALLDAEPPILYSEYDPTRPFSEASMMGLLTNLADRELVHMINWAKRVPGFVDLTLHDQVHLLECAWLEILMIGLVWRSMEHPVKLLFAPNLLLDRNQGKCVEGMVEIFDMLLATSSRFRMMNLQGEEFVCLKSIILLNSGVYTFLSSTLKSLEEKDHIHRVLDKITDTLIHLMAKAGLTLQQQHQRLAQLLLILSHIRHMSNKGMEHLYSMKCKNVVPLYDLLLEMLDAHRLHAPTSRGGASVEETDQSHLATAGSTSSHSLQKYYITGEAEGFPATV
Protocol: Fresh medium and (if any) hormones were added. For MCF-7 and 231 cells, transient transfection was carried out using the Tfx™-20 reagent (Promega; Madison, Wis.) according to the manufacturer's direction with minor changes. Briefly, 1×10⁵ cells were plated in each well of 12-well microplates one day before transfection. A 1:3 ratio of DNA to lipid was used. The DMEM/F12 medium without serum was used as carrier for the DNA-lipid mixture. After 1 hour incubation with the DNA-lipid-DMEM/F12 at 37° C., the cells were transferred to fresh DMEM/F12 supplemented with 10% CD-FBS, 50,000 U/I of penicillin, 50 mg/l streptomycin and hormones. […] The cells subjected to either transfection method were harvested 48 hours post-transfection. Reporter assays were performed by lysing the cells in situ with 250 μl of passive lysis buffer (Promega).

ER3M (in cell) = ER3M (in cell) (Homo sapiens, UniProt P03372 SEQ:1-595, E203W,Q214A,H216G); assay: cell_activity; HepG2, 10 nM OHT; conditions: chain copies: 2 inferred
ER4.3 (in cell) = ER4.3 (in cell) (Homo sapiens, UniProt P03372 SEQ:1-595, E203W,Q214V,G215R,H216P,N217T); assay: cell_activity; HepG2, 10 nM OHT; conditions: chain copies: 2 inferred
ER3M = ER3M (Homo sapiens, UniProt P03372 SEQ:1-595, E203W,Q214A,H216G); assay: EMSA; modestly lower than the other four mutants; conditions: chain copies: 2 stated; label: labeled
ER3.1 = ER3.1 (Homo sapiens, UniProt P03372 SEQ:1-595, E203W,Q214N,G215R,D218S); assay: EMSA; conditions: chain copies: 2 stated; label: labeled
Protocol: (§1) To compare binding of wild type hERα and the ER mutants to the EREs, protein titrations were performed. Increasing amounts of extracts containing equivalent levels of wild-type ER or ER mutants were incubated with the cERE. The ER:ERE complexes were then analyzed by EMSA.
(§2) To test this idea, synthetic probe (SEQ NO: 63) comprising a perfect palindrome with both half sites representing the imperfect ERE half site in the pS2 gene was prepared (FIG. 1A(ii), pS2 PAL).

ER2 = ER2 (Homo sapiens, UniProt P03372 SEQ:1-595, E203W,Q214A,G215R); assay: EMSA; conditions: chain copies: 2 stated; label: labeled
Protocol: as §1, §2

ER4 = ER4 (Homo sapiens, UniProt P03372 SEQ:1-595, E203W,Q214A,G215R,H216G); assay: EMSA; conditions: chain copies: 2 stated; label: labeled
Protocol: as §1, §2

ER4.3 = ER4.3 (Homo sapiens, UniProt P03372 SEQ:1-595, E203W,Q214V,G215R,H216P,N217T); assay: EMSA; conditions: chain copies: 2 stated; label: labeled
Protocol: as §1, §2

ERα wild type (hERα) = molecular target: T2, ERα wild type (hERα) (Homo sapiens, UniProt P03372 SEQ:1-595); assay: EMSA; negligible binding; conditions: tags: CHO-S whole cell extract; chain copies: 2 stated; label: labeled
T2 chain: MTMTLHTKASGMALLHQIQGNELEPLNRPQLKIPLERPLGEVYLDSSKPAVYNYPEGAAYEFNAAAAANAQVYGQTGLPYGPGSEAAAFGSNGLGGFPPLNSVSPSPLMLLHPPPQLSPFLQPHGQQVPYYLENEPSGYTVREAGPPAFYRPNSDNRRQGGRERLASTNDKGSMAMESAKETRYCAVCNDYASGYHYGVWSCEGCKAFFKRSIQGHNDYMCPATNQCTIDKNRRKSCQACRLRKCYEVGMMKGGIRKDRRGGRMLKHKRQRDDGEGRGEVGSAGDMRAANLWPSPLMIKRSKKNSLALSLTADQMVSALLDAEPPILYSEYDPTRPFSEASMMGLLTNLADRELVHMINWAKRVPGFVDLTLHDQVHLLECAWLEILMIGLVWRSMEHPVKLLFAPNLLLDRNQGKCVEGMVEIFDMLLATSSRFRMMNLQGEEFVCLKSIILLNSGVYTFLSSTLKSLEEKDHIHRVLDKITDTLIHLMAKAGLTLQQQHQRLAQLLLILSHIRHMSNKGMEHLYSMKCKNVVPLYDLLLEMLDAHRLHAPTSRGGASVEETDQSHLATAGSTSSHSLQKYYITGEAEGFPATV
Protocol: as §1, §2

B1: ATL2/cERE (dsDNA)
DNA 1: AAGCTTAGGTCACTGTGACCTATCAAGATATCGAGATAGGTCACTGTGACCTATCGACTCTAGA
DNA 2: TCTAGAGTCGATAGGTCACAGTGACCTATCTCGATATCTTGATAGGTCACAGTGACCTAAGCTT
ERα wild type (in cell)
  activity: 41 fold induction

B2: ATL4/PAL (dsDNA)
DNA 1: AAGCTTGGGCCACTGTGGCCCATCAAGATATCGAGATGGGCCACTGTGGCCCATCGACAGGAATTCACGGGCCACTGTGGCCCATCAAGATATCGAGATGGGCCACTGTGGCCCATCGACTCTAGA
DNA 2: TCTAGAGTCGATGGGCCACAGTGGCCCATCTCGATATCTTGATGGGCCACAGTGGCCCGTGAATTCCTGTCGATGGGCCACAGTGGCCCATCTCGATATCTTGATGGGCCACAGTGGCCCAAGCTT
ER3M (in cell)
  activity: > 80 fold induction
ER4.3 (in cell)
  activity: > 80 fold induction

B3: pS2 PAL probe (dsDNA)
DNA 1: AGCTTCTCTATTGGGCCACTGTGGCCCTCATCTGAAGCT
DNA 2: AGCTTCAGATGAGGGCCACAGTGGCCCAATAGAGAAGCT
ER3M
  binding signal: > 30 fold higher affinity than WT
ER3.1
  binding signal: > 30 fold higher affinity than WT
ER2
  binding signal: > 30 fold higher affinity than WT
ER4
  binding signal: > 30 fold higher affinity than WT
ER4.3
  binding signal: > 30 fold higher affinity than WT
ERα wild type (hERα)
  binding signal: > 100 fold weaker than cERE
